± gives the standard deviation of the averaged measurements.
B1: library; a variant is named by its letters at N, in order (parent)
chain: AATGTTGTTGATGCAACCATAAAGTGATATTTAATAATTATTTATAATCAGCAACTTAACCACAAAACAACCATATATTGATATNTCACAAAACAACCATAANTTGATATTTTTGTGAATCGAGTATTTCAGCAAAACTACTGCAGTAAGAA

Experiments:
[1] = variants of: B1; experiment: relative integration efficiency (T-LR orientation) vs wild-type transposon end (log2 (normalized fold change)); transposon end mutated: left end; higher = more efficient transposition; details: with VchCAST RNA-guided transposition machinery (E. coli BL21(DE3) host, lacZ target)
Method: (§1)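 Pooled, barcoded VchCAST (Tn6677) mini-transposon donor libraries; each variable transposon-end sequence sits in a fixed pDonor mini-transposon context (10-bp barcode and cargo not included). Left- or right-end libraries were co-transformed with pEffector (TniQ-Cascade, TnsABC, lacZ crRNA, T7, 0.1 mM IPTG) into E. coli BL21(DE3) and grown 18 h at 37 C. T-LR and T-RL junction amplicons were sequenced; output/input barcode fold change was normalised to the mean of four wild-type barcodes and log2-transformed. Two biological replicates; zero-count/undetected variants carry floor values (-10 / -15), censored here. Barcode uncoupling by PCR recombination adds noise.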

[2] = variants of: B1; experiment: relative integration efficiency (T-RL orientation) vs wild-type transposon end (log2 (normalized fold change)); transposon end mutated: left end; higher = more efficient transposition; details: with VchCAST RNA-guided transposition machinery (E. coli BL21(DE3) host, lacZ target)
Method: as §1

Variant	relative integration efficiency (log2) [1]	relative integration efficiency (log2) [2]
TA A22T G24T T31C A33C A70C T76A T84A C87A A96C T110A T113A	-0.841 ± 0.82	-0.504 ± 0.43
CA	0.637 ± 0.24	0.299 ± 0.068
TA A16C G24T T30A T76A A77G C87T A96C T112G T113C	0.0498 ± 0.26	-0.0655 ± 0.56
CA A23G G24T A33T A96C T110A T113A	-0.448 ± 0.74	-0.516 ± 0.28
TA A16C G24T T32G A33C T76A T78A T84A C87A A96C T110A T113A	-0.572 ± 0.61	-0.189 ± 0.31
TA A16C G24T T32G A33C T76A T78G C87A A96C T112G T113C	-0.523 ± 0.65	-0.344 ± 0.18
TA A22T G24T T31C A33C T76A T78G C87A T104A T110A T113A	-0.444 ± 0.45	-0.395 ± 0.24
TA A16C G24T T32G A33C A70C T76A T84A C87A T104A T110A T113A	-2.03 ± 1.6	-0.844 ± 0.55
TA A16C G24T T30A T76A T78G C87A T104G T113A	-0.0106 ± 0.39	-0.0789 ± 0.27
TA A22T G24T T31C A33C T76A T78G C87A T104G T113A	-0.379 ± 0.48	-0.685 ± 0.35
TA A22T G24T T31C A33C T76A T78A T84A C87A T104A T110A T113A	-0.396 ± 0.056	-0.175 ± 0.33
TA A16C G24T T30A A70C T76A T86G T104A T110A T113A	-0.858 ± 0.25	-0.764 ± 0.36
TA A16C G24T T30A A70C T76A T84A C87A A96C T110A T113A	-0.489 ± 0.47	-0.00649 ± 0.34
TA A16C G24T T30A T76A T78A T84A C87A T104G T113A	-0.559 ± 0.18	-0.412 ± 0.26
TA A16C G24T T32G A33C T76A A77G C87T A96C T110A T113A	-1.08 ± 1.6	-0.54 ± 0.44
CA A22T G24T T31C A33C A96C T112G T113C	-0.822 ± 0.81	-0.76 ± 0.32
CA A22T G24T T31C A33C A96C T110A T113A	-0.837 ± 0.2	-0.802 ± 0.25
TA A16C G24T T32G A33C T76A T78G C87A A102T T111C T113C	-0.986 ± 0.79	-0.362 ± 0.18
TA A16C G24T T32G A33C A70C T76A T84A C87A A96C T112G T113C	-0.915 ± 1.2	-0.234 ± 0.35
TA A22T G24T T31C A33C A70C T76A T84A C87A A102T T111C T113C	-0.102 ± 0.33	-0.168 ± 0.35
TA A22T G24T T31C A33C A70C T76A T86G A102T T111C T113C	-0.793 ± 0.32	-0.813 ± 0.39
CA A23G G24T A33T A96C T112G T113C	-0.242 ± 0.57	-0.198 ± 0.26
TA A22T G24T T31C A33C A70C T76A T86G A96C T110A T113A	0.00776 ± 0.18	-0.657 ± 0.25
TA A16C G24T T30A A70C T76A T84A C87A A96C T112G T113C	-0.489 ± 0.88	0.259 ± 0.14
TA A23G G24T A33T T76A T78A T84A C87A T104G T113A	0.315 ± 0.39	-0.265 ± 0.4
TA A16C G24T T30A T76A A77G C87T A102T T111C T113C	-1.05 ± 1.4	-0.994 ± 0.46
TA A16C G24T T32G A33C T76A T78G C87A A96C T110A T113A	-0.283 ± 0.56	-0.233 ± 0.26
CA A16C G24T T30A T104A T110A T113A	-0.532 ± 0.028	-0.543 ± 0.56
CA A23G G24T A33T A102T T111C T113C	-0.354 ± 0.18	-0.967 ± 0.39

Reference: the supplement of paper PMC10201428
